Laboratory results as given in patent publication US20190212347A1, “BIO-ANALYTICAL METHOD FOR INSULIN ANALOGUES” (BIOCON LIMITED, priority 2016, published 2019).

Key:
[1] = Stability in human plasma (room temperature, freeze/thaw, frozen storage); type: in vitro ADME
Protocol: Assessment of sample stability on storage (storage stability) was carried according to table (8), Acceptance criterion was defined as a recovered concentration within ±15% of the nominal spiked concentration. All standards were used within its stability period.
Validation consisted of intra run precision and bias, inter-run precision and bias, dilution integrity, matrix related modification of ionisation, auto-injector carry over, stability in whole blood at room temperature and on ice, freeze thaw stability of plasma over 5 cycles, 24 h room temperature stability of plasma, […], recovery and extract stability at 10° C.

[2] = Extract stability at 10° C.; type: physicochemical; conditions: extracts stored at 10° C. for approximately 85 hours
Protocol: Validation consisted of intra run precision and bias, inter-run precision and bias, dilution integrity, matrix related modification of ionisation, auto-injector carry over, stability in whole blood at room temperature and on ice, freeze thaw stability of plasma over 5 cycles, 24 h room temperature stability of plasma, frozen stability in plasma at −20 and −80° C. for 73 days, recovery and extract stability at 10° C.

[3] = Pharmacokinetics study: IN-105 plasma levels by LC/MS/MS in euglycemic clamp study in patients with Type 1 diabetes; type: in vivo, human
Protocol: The method was considered validated successfully since it passed all the pre-determined criteria in the validation protocol. The validated method was subsequently used for measurement of IN-105 levels in a euglycemic clamp study carried out in patients with Type 1 diabetes. The method for the determination of IN-105 in human plasma has been validated successfully over the concentration range 0.200 ng/ml to 50.0 ng/mL.
Plasma concentration data for each patient and treatment was analysed by a non-compartmental method. The area under plasma level curve for AUC0-t was calculated by the trapezoidal rule. The primary pharmacokinetic parameters (mean±SD) were Cmax, AUClast, Tmax and PD parameters were Tmin, Cmin, AUClast. Ratios and 90% CIs of geometric means were calculated for PK and PD parameters from mixed effects model with fixed effects for sequence, period and treatment, and patients within sequence as a random effect for log transformed Cmax and AUC.
The average plasma concentration time profile of IN-105 obtained after administration of IN-105 tablets in volunteers is shown in FIGS. 13-14.

[4] = Stability of stock solution in acetic acid (2%) in methanol:water; type: physicochemical; conditions: acetic acid (2%) in methanol:water (30:70 v/v)
Protocol: Two separate stock solutions were prepared by dissolving 2 mg of IN-105 and dissolving in 1 mL of 2% acetic acid containing methanol:water in the ratio of 30:70 v/v. Thus, the stock solution of 2000 μg/mL was prepared.
One was named “calibration stock” and other was named “quality control stock”. The stock solution was stored at −20° C. for 40 days.
In one embodiment nitrogen isotope labelled insulin having purity 96.3% and 96.1% respectively, was used as analytical standard and internal standard for further analysis. Glargine (3.64 mg/mL) of 100% purity was used as co-administered standard in the analytical procedure. The stability studies to understand storage stability and solution stability were carried out.
In addition to the experiments described above, selectivity of the method in plasma (K2EDTA/K3EDTA) from different sources, effect of lipaemia and haemolysis, selectivity and modification of ionisation of insulin in the presence of Glargine and stability of solutions of insulin or insulin analogues investigated.

[5] = room temperature, up to 24 hours

Row | Substance | frozen stability in plasma at −20° C. ([1]; 244 days storage at −20° C.) | frozen stability in plasma at −80° C. ([1]; 244 days storage at −80° C.) | freeze/thaw stability in plasma ([1]; after five freeze/thaw cycles) | stability in plasma stored at room temperature [1, 5] | extract stability [2] | mean plasma concentration as a function of time after dosing ([3]; 30 mg/kg dose, FIG. 15) | AUClast (AUCt) as function of dose: intercept ([3]; AUClast in ng · h/ml, linear regression against dose) | AUClast (AUCt) as function of dose: slope ([3]; AUClast in ng · h/ml, linear regression against dose, oral tablets, T1D patients) | Cmax as function of dose: intercept ([3]; Cmax in ng/ml, linear regression against dose) | Cmax as function of dose: slope ([3]; Cmax in ng/ml, linear regression against dose, oral tablets, T1D patients) | correlation of maximal plasma concentration and area under the PK curve with dose ([3]; p<0.05) | solution stability at room temperature [4, 5] | solution stability at −20° C. ([4]; −20° C., up to 40 days)
1 | IN-105: rapid acting insulin analogue for oral delivery; human insulin sequence conjugated with short chain alkyl-polyethylene glycol at ε-amino group of lysine B29 | stable | stable | stable | stable | stable | well-defined peak concentration and subsequent clearance is evident | −243.525 area units | 26.427 area units/mg | −2.421 concentration units | 0.431 concentration units/mg | linearly correlated significantly | – | –
2 | [^15N] IN-105: IN-105 labelled with stable isotope 15N by fermentation in labelled medium; used as internal standard | – | – | – | – | – | – | – | – | – | – | – | stable | stable
